From patent US20200062832A1 (QUIDEL, published 2020)

Assays:
[1] = target: T1, recombinant DbpA full length protein (without signal sequence), Borrelia burgdorferi decorin-binding protein A (Borrelia burgdorferi, UniProt O50917 30-191); assay: Biacore SPR (summary table)
T1 construct: also called DpbA; DbpA antigen
T1 sequence: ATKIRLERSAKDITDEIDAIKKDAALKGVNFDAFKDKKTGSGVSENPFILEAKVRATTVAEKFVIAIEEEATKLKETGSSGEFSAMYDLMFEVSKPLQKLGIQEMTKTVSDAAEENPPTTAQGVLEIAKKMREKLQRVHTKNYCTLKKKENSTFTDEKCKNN

[2] = target: T1, recombinant DbpA full length protein …; assay: Octet BLI, DbpA 100 nM (summary table)
[3] = target: T1, recombinant DbpA full length protein …; assay: Biacore SPR, supernatant over DbpA chip
[4] = target: T1, recombinant DbpA full length protein …; assay: Octet BLI, mAb on anti-mIgG Fc sensor, DbpA 100 nM
[5] = target: T1, recombinant DbpA full length protein …; assay: Biacore SPR, DbpA on CM5 chip

B1: MAb 6G8 (mouse hybridoma monoclonal antibody) (antibody)
heavy: QVQLQQPGAELVKPGASVKLSCKASGYTFTRYWMYWVKQRPGRGLEWIGRLDPNSGVTKYNEKFKSKATLTVDKSSSTAYMQLSSLTSEDSAVYYCVRDDSWYFDVWGTGTTVTVSSAKTTPPSVYPLAPGSAAQTNSMVTLGCLVKGYFPEPVTVTWNSGSLSSGVHTFPAVLQSDLYTLSSSVTVPSSTWPSQTVTCNVAHPASSTKVDKKIVPRDCGCKPCICTVPEVSSVFIFPPKPKDVLTITLTPKVTCVVVDISKDDPEVQFSWFVDDVEVHTAQTKPREEQINSTFRSVSELPIMHQDWLNGKEFKCRVNSAAFPAPIEKTISKTKGRPKAPQVYTIPPPKEQMAKDKVSLTCMITNFFPEDITVEWQWNGQPAENYKNTQPIMDTDGSYFVYSKLNVQKSNWEAGNTFTCSVLHEGLHNHHTEKSLSLSPGK
light: EIQMTQSPSSMSASLGDRITITCQATQDIVKNLNWYQQKPGKPPSFLIYYATELAEGVPSRFSGSGSGSDYSLTINNLESQDFADYFCLQFYAFPLTFGAGTKLELRRADAAPTVSIFPPSSEQLTSGGASVVCFLNNFYPRDINVKWKIDGSERQNGVLNSWTDQDSKDSTYSMSSTLTLTKDEYERHNSYTCEATHKTSTSPIVKSFNRGEC
notes: Mouse IgG1 kappa, tested as hybridoma culture supernatant; copies: 2 + 2
Kd [1]: 0.25 pM
Kd [2]: 976 pM
koff [2]: 0.000977 s⁻¹
kon [2]: 1e+06 M⁻¹ s⁻¹
Kd [3]: 0.25 pM
koff [3]: 5e-08 s⁻¹
kon [3]: 200000 M⁻¹ s⁻¹
Kd [4]: 976 pM
koff [4]: 0.000977 s⁻¹
kon [4]: 1e+06 M⁻¹ s⁻¹

B2: MAb 8C10 (mouse hybridoma monoclonal antibody) (antibody)
heavy: QVQLQQSGAELMKPGASVKLSCKAAGYTFTDYWIEWVKQRPGHGLEWIGEILPGSGSTKDNERFKGKATFTADTSSNTAYMQLSSLTTEDSAIYYCARREWGYYFDYWGQGTTLTVSSAKTTPPSVYPLAPGSAAQTNSMVTLGCLVKGYFPEPVTVTWNSGSLSSGVHTFPAVLQSDLYTLSSSVTVPSSTWPSQTVTCNVAHPASSTKVDKKIVPRDCGCKPCICTVPEVSSVFIFPPKPKDVLTITLTPKVTCVVVDISKDDPEVQFSWFVDDVEVHTAQTKPREEQINSTFRSVSELPIMHQDWLNGKEFKCRVNSAAFPAPIEKTISKTKGRPKAPQVYTIPPPKEQMAKDKVSLTCMITNFFPEDITVEWQWNGQPAENYKNTQPIMDTDGSYFVYSKLNVQKSNWEAGNTFTCSVLHEGLHNHHTEKSLSLSPGK
light: DIVMTQSHKFMSTSVGDRVSITCKASQDVSTAVAWYQQKPGQSPKLLIYWASTRHTGVPDRFTGSGSGTDYTLTISSVQAEDLALYYCQQHYSTPYTFGGGTKLEIKRADAAPTVSIFPPSSEQLTSGGASVVCFLNNFYPRDINVKWKIDGSERQNGVLNSWTDQDSKDSTYSMSSTLTLTKDEYERHNSYTCEATHKTSTSPIVKSFNRGEC
notes: Mouse IgG (gamma/kappa), tested as hybridoma culture supernatant; Signal peptides are positions 1-19 (heavy) and 1-20 (light); copies: 2 + 2
Kd [1]: 1.2 pM
Kd [2]: < 1 pM
koff [2]: < 1e-07 s⁻¹
kon [2]: 356000 M⁻¹ s⁻¹
Kd [3]: 1.2 pM
koff [3]: 1.3e-07 s⁻¹
kon [3]: 100000 M⁻¹ s⁻¹
Kd [4]: < 1 pM
koff [4]: < 1e-07 s⁻¹
kon [4]: 356000 M⁻¹ s⁻¹

B3: 6G8 chimeric IgM (antibody)
heavy: QVQLQQPGAELVKPGASVKLSCKASGYTFTRYWMYWVKQRPGRGLEWIGRLDPNSGVTKYNEKFKSKATLTVDKSSSTAYMQLSSLTSEDSAVYYCVRDDSWYFDVWGTGTTVTVSSAKTTPPSVYPLAPGSAAQTNSMVTLGCLVKGYFPEPVTVTWNSGSLSSGVHTFPAVLQSDLYTLSSSVTVPSSTWPSQTVTCNVAHPASSTKVDKKILPVIAELPPKVSVFVPPRDGFFGNPRKSKLICQATGFSPRQIQVSWLREGKQVGSGVTTDQVQAEAKESGPTTYKVTSTLTIKESDWLSQSMFTCRVDHRGLTFQQNASSMCVPDQDTAIRVFAIPPSFASIFLTKSTKLTCLVTDLTTYDSVTISWTRQNGEAVKTHTNISESHPNATFSAVGEASICEDDWNSGERFTCTVTHTDLPSPLKQTISRPKGVALHRPDVYLLPPAREQLNLRESATITCLVTGFSPADVFVQWMQRGQPLSPEKYVTSAPMPEPQAPGRYFAHSILTVSEEEWNTGETYTCVVAHEALPNRVTERTVDKSTGKPTLYNVSLVMSDTAGTCY
light: B1 light
notes: Heavy chain is mouse VH-CH1 plus human IgM mu chain CH2-4; also called 6G8 chimera; 6G8 (26394.1.a)
Kd [5]: 1.96 pM
koff [5]: 2.45e-05 s⁻¹
kon [5]: 1.25e+07 M⁻¹ s⁻¹
